The record followed here is the DeepSol protein solubility set.

The data set can be described thus: soluble on expression in E. coli; label from the status in PepcDB or PDB records.
In the case of “MLASRRLLPQISSRALSTSPALKSSEISVKEERPYVYNVKLNRPAKLNTFTMDMWREFKKAIDSLADDPKCRSIIISGEGKAFCAGIDIAHGLSDILRIIQDDTIEVGRKGRLVRKFIGEIQDCYTALERCPKPIIASIHSHCLGAGIDLITACDIRVASQDAIFSIREVDVGLAADIGTLNRIQKVVGNDSWTRDVAFTARDFGADEALRFGLISRIYDDRQSLLENSIDMAARIAEKSPIAVQGTKETLNYAREHSTDDSLNFIKTWNMSQLLSTDLLSSAMAVMNKKKATYEDV”, the “soluble on expression in E. coli” value is on record as “not soluble”.

For “MSKTITWTAALLGSMALAGCSGPKTLYQWEGYQAQVHEYFKGESKEAQAQALEADLEKIRAKNGAVPPGYHAQLGLLYSSIGKDDQMVREFETEKALFPESATYMDFLLNNARGGAR”, the “soluble on expression in E. coli” value was “not soluble”. As for “MASALRPPRVPKPKGVLPSHYYESFLEKKGPCDRDYKKFWAGLQGLTIYFYNSNRDFQHVEKLNLGAFEKLTDEIPWGSSRDPGTHFSLILRNQEIKFKVETLECREMWKGFILTVVELRVPTDLTLLPGHLYMMSEVLAKEEARRALETPSCFLKVSRLEAQLLLERYPECGNLLLRPSGDGADGVSVTTRQMHNGTHVVRHYKVKREGPKYVIDVEQPFSCTSLDAVVNYFVSHTKKALVPFLLDEDYEKVLGYVEADKENGENVWVAPSAPGPGPAPCTGGPKPLSPASSQDKLPPLPPLPNQEENYVTPIGDGPAVDYENQDVASSSWPVILKPKKLPKPPAKLPKPPVGPKPEPKVFNGGLGRKLPVSSAQPLFPTAGLADMTAELQKKLEKRRALEH”, the entry is “soluble”; as for “MAHHHHHHMSQSTSLAYATLFHPSRDSATIQHSAARASAAHQQQVQQSPSITRATDGATYTAEGIAVASLSSLDTWTGFLSSQWAETVKMQLSMPSNAAPVISPSGADLISSLHSIVSRQNKVVAQPQEKLVAQRAKEEKDWEAKKQLSQSTSAEGMPGSFKNTKDEAVSSVDDNVADNAAENTQVCVLLAHLLEHARFLWARAVSQHFRVAQVRKSSSSKDTRSPKKVTADINAEAAMEEERVGLPPISLLFRCLVDGINSEEARQAIVTAGVLPASAWDSGVLGVDQLGILTVFERHVQALRTFPGIVPPLEALREYFAELHPQQLSKYYPSGALDSTLELAEAQMDAFLRFGDETEQMAALLRAGLHPSVRRLLYARALQVPLTVTDGKPMFLAQGELMTNHLRHGLARYLTCSSRQARDKVKRRFHHRYSSSKEENRVRLLQRLALDDMFISVGNSDKYFVYTDDVEVLSTAMVVDHSLPVPKMVQALKQLGRPRDLLDSYVTYLQYPETNLVQQKALPCGVAPLEGFALLLGALCNVTSDTVEQYELAAAIVAQLWSRLQGPTPELFQCCLIFESLVQQLALPAVLHATRNLQYPPLVLAMRWMLTGFADLLDAFEVLSFWDLVLSYHMREMHRRSPLSLPTGLANAAPHDTSTPCALWLLPMYAAAIFVMRAPLVEACRTAAEVDVVFATGHQLRTRSLLQGLLFG”, “not soluble”. Take “MNKRDYMNTSVQEPPLDYSFRSIHVIQDLVNEEPRTGLRPLKRSKSGKSLTQSLWLNNNVLNDLRDFNQVASQLLEHPENLAWIDLSFNDLTSIDPVLTTFFNLSVLYLHGNSIQRLGEVNKLAVLPRLRSLTLHGNPMEEEKGYRQYVLCTLSRITTFDFSGVTKADRTTAEVWKRMNIKPKKAWTKQNTL”: the “soluble on expression in E. coli” value was “soluble”. With “MGASQSAEQEARPEVVRIDRNEIPEEYKTVGVSSDVVSRVNATRVAGNDGESDRLRQELAREREEKARLREDMAKLSQLQQRKTAGISAAPVSISGNDLEERKKIFDDTVERVQKQFFAYHRENVCQDNENEIVRCLQENPGRVLKCAPLTEAFEKCVGEFRQQVLKGN”, the “soluble on expression in E. coli” value is recorded as “not soluble”.

In the case of “MSLDHSRDQARRNIAVHYDLSNDLFAAFLDETMTYSCAMFTDLLAQPTPAWTELAAAQRRKIDRLLDVAGVQQGSHVLEIGTGWGELCIRAAARGAHIRSVTLSVEQQRLARQRVAAAGFGHRVEIDLCDYRDVDGQYDSVVSVEMIEAVGYRSWPRYFAALEQLVRPGGPVAIQAITMPHHRMLATRHTQTWIQKYIFPGGLLPSTQAIIDITGQHTGLRIVDAASLRPHYAETLRLWRERFMQRRDGLAHLGFDEVFARMWELYLAYSEAGFRSGYLDVYQWTLIREGPEGHHHHHH”, the “soluble on expression in E. coli” value is given as “not soluble”. As for “MEIRTFLERALKEDLGHGDLFERVLEKDFKATAFVRAKQEGVFSGEKYALELLEMTGIECVQTIKDKERFKPKDALMEIRGDFSMLLKVERTLLNLLQHSSGIATLTSRFVEALNSHKVRLLDTRKTRPLLRIFEKYSVLNGGASNHRLGLDDALMLKDTHLRHVKDLKSFLTHARKNLPFTAKIEIECESFEEAKNAMNAGADIVMCDNLSVLETKEIAAYRDAHYPFVLLEASGNISLESINAYAKSGVDAISVGALIHQATFIDMHMKMA”, the entry is “soluble”; as for “MLVSRNLAKTISNSKNAKNIHTSCRKFAPVPMTYASYSSPELDRNSPLVIVHGLFGQKQNWNSVGKALHKKLEAPVYAVDVRNHGSSPHTETMSYTEMAEDLVLFIDKVKEETKKTRVNLLGHSMGGKIVMRLAIDSKWSDRIEKLIVEDVSPKGYSRRHLEFRELIKTMRNVDLCRTRKEILKDLESAIPDLAMRQFILTNLQPSSENEGQMEWKININTIDSHVDEILGYTLPVGSFRGPTLFLHGANSGYVPDDHKPDIKCLFPQVQFDAIPDSGHWVHAEKPQLFINSVYKFLKP”, “not soluble”; as for “MGSDKIHHHHHHMVQDRKSTVVITGASSGVGLYAAKALAERGWYVVMACRDVAKAQLAAQSVGIPHQGSYTIMHIDLGSLDSVRQFVKNFRASGHSLDALVCNAAIYMPLIKEPLRSPEGYELTVTTNHLGHFLLCNLMLEDLKKSSSEPRLVILGTVTHNPDELGGKIPPRPDLGDLQGFAEGFKEPISMIDGKKFEPVKAYKDSKVCNVLTMRELHQRYHESTGIVFNSLYPGCVAETPLFRNHYPLFQKIFPLFQKYITKGYVSQELAGERVAAVVADPEYNQSGVYWSWGNRQKEDGKSFVQKVSPQARDDDKGDRLWQLSAKLVGLA”, “not soluble”. In the case of “MKKIYKVLYPVGFQIFEVQDDYVVALPFVEEKPLENLVNEQSQFFNFSEQKWEEAVTQDYTKKLNLLENLANGLEVSNSELKQANEKLTAKAESLAQINSKTMLTSLQNTREIDAIKEQIGGAK”, the “soluble on expression in E. coli” value is on record as “not soluble”. Consider “MGSDKIHHHHHHMSSEAIFEHGYENIDLVREYDARYAGEDVHYETFARLANFFGRDMRPHWHDRYFQLHYLVTGRITLQLDEHFYSVRAPLFVLTPPSVPHTFFTNPDSDGHVLTVRQELIWPLVEKLWPGSGDAAMLQGICLSLEGMEHTLAALNHYWPIISLEFQQNKQGREILLQSLAQSIFTILLREAPPNDISTCSVRGEMCLFQKFNRLIDENYRQHLMVPEYATMLGMSESRLTELCRRFANQSPKRLIFERVSREARRLLLYSEQSINQIALDLGYKDPAYFARFFNRMMGCSPTQFRGR”, for which the “soluble on expression in E. coli” value is “not soluble”.

Turning to “MEELVGLLRIRVKRGINLAQRDTLSSDPFVVITMGSQKLKTRVVENNCNPEWNEELTLALRHPDEPVNLIVYDKDTFTSHDKMGDAKIDIKPFLEVHKMGLQELPDGTEIKRVVPNRENCLAEASSIVSNNGKIVQNMILLLRNVECGEVEIQLEWIDIPGSRGL”, the “soluble on expression in E. coli” value is reported as “not soluble”. In the case of “RKPEEEPQPIDDSSMQFLLAAKDAVSGGIKQNPDFSAQDLAEKMCMSPSQLNRKLTSVVGCSTIGYIQQIKIKLACKLLADESKNISDISIEAGFSDPAYFSRTFKRYMNCSPSQYRQKLLAMPGSDKETV”, the “soluble on expression in E. coli” value is on record as “not soluble”. Take “STSGTSVINDKVLQYETFISEVLRRDLQKVLEQRDAVYEKIAQYLQLKNTIQSIQGSGSKELKTDVDLGCNFYVQAHVPDASRIYVAVGYGFFVEFTHVEALKFIEKKTNQLTEYTEVLTKDAAKIKANIRMVLEGLRELQGLKDLPEDRRREVF”: the “soluble on expression in E. coli” value is “soluble”. On to “MKLKLYLIPLLASGIILSACSSTTSQVISSLSSAQKYFEANKGELNKNNVINILKDGYNSDPNKTVNALLAGWKYTLMDQKLLENNLDPSRFKNTFGPNKNKDDVTPNISEKGLFLNETFTGLGSQIAEVFNVQKQIVSGFSYSWTSPKSFKVNIHIKMEGMINEKSKETIKSFLSNKDSNGSNSVEESEYTGDKAKFTADFIFSYTPPTGGTRSLTDKSFDVITNMINFPADVKIDVNTSHNKLNELLEKNDQVKRMKSRTFNGRNIDLLPFFYYALL”, for which the “soluble on expression in E. coli” value is given as “soluble”.

Take “MGSDKIHHHHHHVNYIKRAMENTFLRLAKEFPALLLTGPRQTGKTTMLQKLAAEEKIGRNYVTLDDLTERQMAKNDPKMFLQIHKPPVFIDEVQYAPELFSYIKIHIDRHHRPGDFWLTGSQVFKLMDGVQESLAGRVGLLHMSPMSQAESCGADTTPFILDLEQLTRRVRERNPLDTPALYERIFRGGMPALVSGQYTDHWALYSSYISTYLDRDVKEISGTINSLRFMDFITAAAALCGQMLNYKTIADAAGIDQLTAKGWLGILERLGIIFYLHPYANNMLKRMVTKPKLYFYDCGLVAYLTKWSDSATLMNGAMSGAILENFVVSEIIKSYQNYGREAFIYYYRDKDTKEIDILLEDSGKLYPMEIKKTATPQKQLTRVFNVIDKATLERGTGAVLCTTDRLSAFDSENLIIPIWGI”: the “soluble on expression in E. coli” value is on record as “not soluble”.

In the case of “AIARTDSSKMTDVESGVANFASSARAGRRNALPDIQSSAATDGTSDLPLKLEALSVKEDAKEKDEKTTQDQLEKPQNEEK”, the “soluble on expression in E. coli” value was “soluble”.

For the sequence “MGSDKIHHHHHHMQIKNLSLKNKKDLQIWKEFLTEHGISNFSSAEVFKIDETIALFEDQRIVATGSLAGNVLKYIAVESEGSGSEFNSVISQLTNLAAGKGIFHLFVFTKAKYSKSFQFIGFKELAKSDNAALLESGDYLIGDYLAELPRVANQEEKKIAGIVMNANPFTKGHRYLVEKAASENDYVYVFVVSTDASLFNSKERLQLVKEGTADLKNVFVVSGGDYMVSYATFPAYFLTSDQTVIEYQTTLDALIFKNQIAPVLNIQTRFLGEEPFSKTTGIYNRILEKVLPPSVSVKIIPRAKTQSETIITATEVRQLIAKNNLVPLKQFLPFTTIKYVEEHKTELQSRIKKGININGN”, the “soluble on expression in E. coli” value is given as “not soluble”.

As to “MGSDKIHHHHHHMSNKPFYYQDPFPLSKDDTEYRLLSSDFVSVAQFEGQDILKVEPAALTLLAQQAFHDASFMLRPAHQQQVADILHDPEASENDKYVALQFLRNSEISAKGILPTCQDTGTAIIVGKKGQNVWTGGNDAEALSQGVYNTFIEDNLRYSQNAALDMYQEVNTGTNLPAQIDLYSTEGEDYKFLFVTKGGGSANKTYLYQETKALLTPGKLKSFLIEKMRSLGTAACPPYHIAFAIGGTSAETTLKTVKLASTKYYDELPTEGNEHGQAFRDVALEQEILEAARDLGLGAQFGGKYFAHDVRIIRLPRHGASCPVGMGVSCSADRNIKGKINRKGVWLEQLEQNPGKYIPEHLRETGEGDAVKIDLNRPMTEILKTLSQYPVSTRLSLTGTIIVGRDIAHAKLKERLDNGEGLPQYIKDHPIYYAGPAKTPEGYPSGSLGPTTAGRMDSYVDLLQANGGSMVMLAKGNRSQQVTDACHKHGGFYLGSIGGPAAILAQNSIKSLTCVEYPELGMEAIWKIEVEDFPAFILVDDKGNDFFQVIQSAKCVKCG”, the “soluble on expression in E. coli” value is listed as “not soluble”.
